Here are results for four molecules from patent publication US20200017592A1 (Regeneron, published 2020).

Experiment [1] addresses T1, Macaca fascicularis IL-36R on cells (Macaca fascicularis, UniProt A0A2K5WSK9 20-558).
T1 sequence: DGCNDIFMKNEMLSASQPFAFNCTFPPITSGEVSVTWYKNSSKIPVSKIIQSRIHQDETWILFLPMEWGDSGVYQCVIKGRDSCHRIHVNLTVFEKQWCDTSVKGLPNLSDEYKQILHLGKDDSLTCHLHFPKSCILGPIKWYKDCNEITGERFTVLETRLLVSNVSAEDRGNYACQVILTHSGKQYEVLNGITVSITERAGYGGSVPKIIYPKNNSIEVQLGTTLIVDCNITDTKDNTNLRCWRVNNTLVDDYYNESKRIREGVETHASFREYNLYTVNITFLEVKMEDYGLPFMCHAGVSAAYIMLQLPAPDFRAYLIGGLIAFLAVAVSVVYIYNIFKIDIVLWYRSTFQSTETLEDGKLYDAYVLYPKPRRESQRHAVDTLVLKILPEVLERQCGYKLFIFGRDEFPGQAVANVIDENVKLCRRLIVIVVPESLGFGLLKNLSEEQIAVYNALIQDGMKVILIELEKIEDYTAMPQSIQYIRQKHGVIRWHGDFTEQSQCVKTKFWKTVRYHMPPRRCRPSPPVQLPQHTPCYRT
Put plainly: cell-based or functional assay.

Experiment [2] addresses T2, full-length human IL-36R on cells (human, UniProt Q9HB29 20-575).
T2 sequence (looked up): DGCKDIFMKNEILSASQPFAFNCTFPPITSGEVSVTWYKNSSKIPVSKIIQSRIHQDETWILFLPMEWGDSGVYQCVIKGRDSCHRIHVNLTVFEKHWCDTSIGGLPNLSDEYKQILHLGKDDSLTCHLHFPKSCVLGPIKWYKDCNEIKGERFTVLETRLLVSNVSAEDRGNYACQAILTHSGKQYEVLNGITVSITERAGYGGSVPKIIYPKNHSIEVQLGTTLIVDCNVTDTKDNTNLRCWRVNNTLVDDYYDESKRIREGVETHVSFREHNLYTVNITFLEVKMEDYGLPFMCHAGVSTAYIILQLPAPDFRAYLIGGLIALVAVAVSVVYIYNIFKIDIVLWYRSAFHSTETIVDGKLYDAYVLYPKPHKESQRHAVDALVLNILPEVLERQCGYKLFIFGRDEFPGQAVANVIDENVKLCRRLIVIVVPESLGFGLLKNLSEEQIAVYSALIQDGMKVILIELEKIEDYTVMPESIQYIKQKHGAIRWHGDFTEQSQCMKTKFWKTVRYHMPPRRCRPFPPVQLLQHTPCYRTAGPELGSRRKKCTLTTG
Kind of experiment: cell-based or functional assay.

In experiment [3] the target is T2, full-length human IL-36R on cells. Kind of experiment: cell-based or functional assay. This is another data set of the same source.
The target of experiment [4] is T3, recombinant human IL-36R extracellular domain expressed with a C-terminal myc-myc-hexahistidine tag (human, UniProt Q9HB29 20-337).
T3 construct: also called hIL-36R-MMH; hIL-36R.mmH
Kind of experiment: SPR (Biacore 4000), mAb captured on anti-human Fc, 37°C. A digest of the protocol: (§1)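 First, an anti-human Fc capture surface was prepared by amine coupling; next, anti-IL-36R antibody was captured. Then receptor analyte at 100 nM down to 3.7 nM was flowed for 4 minutes and dissociation monitored for 10 minutes. Finally, kinetics were fitted 1:1.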

Experiment [5] concerns the target T3, recombinant human IL-36R extracellular …. Put plainly: SPR (Biacore 4000), mAb captured on anti-human Fc, 25°C. The gist of the method: as §1
The target of experiment [6] is T4, human IL-36R (IL1RL2) on primary human cells (human, UniProt Q9HB29 20-575).
T4 sequence (looked up): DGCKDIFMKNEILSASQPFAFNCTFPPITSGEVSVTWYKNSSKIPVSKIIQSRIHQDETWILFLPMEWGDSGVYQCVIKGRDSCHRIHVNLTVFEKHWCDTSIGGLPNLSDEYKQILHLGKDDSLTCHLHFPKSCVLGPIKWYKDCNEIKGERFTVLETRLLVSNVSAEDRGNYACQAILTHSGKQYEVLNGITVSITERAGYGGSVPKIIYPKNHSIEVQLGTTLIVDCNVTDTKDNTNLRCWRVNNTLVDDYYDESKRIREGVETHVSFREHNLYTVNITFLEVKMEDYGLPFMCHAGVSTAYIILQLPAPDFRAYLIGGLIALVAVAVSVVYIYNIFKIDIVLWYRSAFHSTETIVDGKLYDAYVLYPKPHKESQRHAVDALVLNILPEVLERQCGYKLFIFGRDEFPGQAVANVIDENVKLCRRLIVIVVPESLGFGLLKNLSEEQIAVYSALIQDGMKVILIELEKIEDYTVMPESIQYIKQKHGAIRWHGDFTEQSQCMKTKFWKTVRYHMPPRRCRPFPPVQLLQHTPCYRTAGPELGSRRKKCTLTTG
Put plainly: cell-based or functional assay.

T3 sequence (Q9HB29 other isoform, or with tags, fused parts or gaps limits assumed): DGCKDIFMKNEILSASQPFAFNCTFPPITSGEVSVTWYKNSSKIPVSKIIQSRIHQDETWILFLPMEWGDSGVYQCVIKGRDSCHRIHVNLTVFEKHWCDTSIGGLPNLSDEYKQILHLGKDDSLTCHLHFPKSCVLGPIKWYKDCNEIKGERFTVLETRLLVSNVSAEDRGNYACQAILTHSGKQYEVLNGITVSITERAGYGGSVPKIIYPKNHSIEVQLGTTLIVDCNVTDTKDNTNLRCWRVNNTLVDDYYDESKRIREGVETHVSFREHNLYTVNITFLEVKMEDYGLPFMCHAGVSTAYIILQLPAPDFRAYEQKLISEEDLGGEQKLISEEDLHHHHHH

B1: H4H14706P2 (antibody, human IgG4 S228P, kappa, V domains shown)
VH: EVQLVESGGGLVQPGRSLRLSCTASGFTFDDYAIHWVRQSPGKGLEWVSVISWNSDVIGYADSVKGRFTISRDNAKNSLYLQMNSLRAEDTALYYCAKGYNWNFFDYWGQGTLVTVSS
VL: EIVLTQSPATLSLSPGERATLSCRASQSVSSYLAWYQQKPGQAPRLLIYNAANRATDIPARFSGSGSGTDFTLTISSLEPEDFAVYYCQQRSNWPLTFGGGTKVEIKR
One may read the Kd as the constant that tells how readily two partners part at equilibrium. The koff is a measure of how fast the partners let go of each other. Broadly, the kon is the rate constant with which the complex forms. By t½ is commonly meant how long it takes for the measured level to halve. Take B1: in experiment [1], the “IC50 [M], NFκB-luciferase, 300 pM hIL-36γ” value amounted to 8.5e-11 M; the “IC50 [M], NFκB-luciferase, 500 pM hIL-36α” value stood at 6e-11 M; the “IC50 [M], NFκB-luciferase, 600 pM hIL-36β” value is 1.2e-10 M; the “Max Inhibition (%), NFκB-luciferase, 300 pM hIL-36γ” value came out at 100%. Further, in experiment [1], the “Max Inhibition (%), NFκB-luciferase, 500 pM hIL-36α” value came out at 100% and the “Max Inhibition (%), NFκB-luciferase, 600 pM hIL-36β” value was found to be 100%. Further, the “IC50, IL-8 production of primary human cells stimulated with 10 nM IL-36α, β and γ” value in experiment [2] was in the range of 1 to 6 nM. Moreover, in experiment [3], the “IC50 [M], NFκB-luciferase, 10 pM hIL-36γ” value turned out to be 1.2e-10 M; the “IC50 [M], NFκB-luciferase, 15 pM hIL-36β” value amounted to 1.2e-10 M; the “IC50 [M], NFκB-luciferase, 20 pM hIL-36α” value is 1e-10 M; the “Max Inhibition (%), NFκB-luciferase, 10 pM hIL-36γ” value is 99%. For the same molecule, in experiment [3], the “Max Inhibition (%), NFκB-luciferase, 15 pM hIL-36β” value came out at 101% and the “Max Inhibition (%), NFκB-luciferase, 20 pM hIL-36α” value worked out at 101%. For the same molecule, in experiment [4], the “100 nM hIL-36R-MMH Bound (RU)” value came out at 113 RU, the Kd came to 8.65 nM, the koff worked out at 0.0013 s⁻¹ and the kon came out at 150000 M⁻¹ s⁻¹. In experiment [4], the “t½” value was 9 min. For the same molecule, in experiment [5], the “100 nM hIL-36R-MMH Bound (RU)” value was determined as 89 RU, the Kd came to 4.08 nM, the koff worked out at 0.000495 s⁻¹ and the kon was 121000 M⁻¹ s⁻¹. In addition, in experiment [5], the “t½” value is 23 min.

B2: H4H14706P2 (antibody, human IgG4 S228P, kappa, V domains shown)
VH: EVQLVESGGGLVQPGRSLRLSCTASGFTFDDYAIHWVRQSPGKGLEWVSVISWNSDVIGYADSVKGRFTISRDNAKNSLYLQMNSLRAEDTALYYCAKGYNWNFFDYWGQGTLVTVSS
VL: EIVLTQSPATLSLSPGERATLSCRASQSVSSYLAWYQQKPGQAPRLLIYNAANRATDIPARFSGSGSGTDFTLTISSLEPEDFAVYYCQQRSNWPLTFGGGTKVEIKR
Regarding B2, in experiment [6], the “IC50 [M], IL-8 production, InMyoFib stimulated with 10 nM hIL-36α” value was 4.89e-09 M; the “IC50 [M], IL-8 production, InMyoFib stimulated with 10 nM hIL-36β” value came out at 3.62e-09 M; the “IC50 [M], IL-8 production, InMyoFib stimulated with 10 nM hIL-36γ” value is 4.59e-09 M; the “IC50 [M], IL-8 production, NHEK stimulated with 10 nM hIL-36α” value turned out to be 4.42e-09 M. In addition, in experiment [6], the “IC50 [M], IL-8 production, NHEK stimulated with 10 nM hIL-36β” value was found to be 3.62e-09 M; the “IC50 [M], IL-8 production, NHEK stimulated with 10 nM hIL-36γ” value was determined as 2.11e-09 M; the “IC50 [M], IL-8 production, PB-derived CD14+ Monocytes stimulated with 10 nM hIL-36α” value amounted to 1.15e-09 M; the “IC50 [M], IL-8 production, PB-derived CD14+ Monocytes stimulated with 10 nM hIL-36β” value amounted to 1.74e-09 M. For the same molecule, the “IC50 [M], IL-8 production, PB-derived CD14+ Monocytes stimulated with 10 nM hIL-36γ” value in experiment [6] is 1.58e-09 M.

B3: H4H14708P2 (antibody, human IgG4 S228P, kappa, V domains shown)
VH: EVQLVESGGDLVQPGRSLRLSCAASGFTFDDYAMHWVRQAPGKGLEWVSVISWNSDVIAYSDSVKGRFTISRDNAKNSLYLQMNSLRTEDTALYYCTKGHKWSFFDYWGQGTLVTVSS
VL: EIVLTQSPATLSLSPGERATLSCRASQSISSYLAWYQQKPGQAPRLLIFNVANRATDIPARFSGSGSGTDFTLTISSLEPEDFAVYYCQQRSNWPLTFGGGTKVEIKR
As for B3, in experiment [6], the “IC50 [M], IL-8 production, InMyoFib stimulated with 10 nM hIL-36α” value worked out at 5.72e-09 M; the “IC50 [M], IL-8 production, InMyoFib stimulated with 10 nM hIL-36β” value was 5.3e-09 M; the “IC50 [M], IL-8 production, InMyoFib stimulated with 10 nM hIL-36γ” value came to 6.4e-09 M; the “IC50 [M], IL-8 production, NHEK stimulated with 10 nM hIL-36α” value is 5.06e-09 M. Moreover, in experiment [6], the “IC50 [M], IL-8 production, NHEK stimulated with 10 nM hIL-36β” value worked out at 5.79e-09 M; the “IC50 [M], IL-8 production, NHEK stimulated with 10 nM hIL-36γ” value is 3.63e-09 M; the “IC50 [M], IL-8 production, PB-derived CD14+ Monocytes stimulated with 10 nM hIL-36α” value amounted to 2.38e-09 M; the “IC50 [M], IL-8 production, PB-derived CD14+ Monocytes stimulated with 10 nM hIL-36β” value amounted to 2.24e-09 M. In addition, the “IC50 [M], IL-8 production, PB-derived CD14+ Monocytes stimulated with 10 nM hIL-36γ” value in experiment [6] came out at 1.95e-09 M.

B4: H4H14708P2 (antibody, human IgG4 S228P, kappa, V domains shown)
VH: EVQLVESGGDLVQPGRSLRLSCAASGFTFDDYAMHWVRQAPGKGLEWVSVISWNSDVIAYSDSVKGRFTISRDNAKNSLYLQMNSLRTEDTALYYCTKGHKWSFFDYWGQGTLVTVSS
VL: EIVLTQSPATLSLSPGERATLSCRASQSISSYLAWYQQKPGQAPRLLIFNVANRATDIPARFSGSGSGTDFTLTISSLEPEDFAVYYCQQRSNWPLTFGGGTKVEIKR
As for B4, in experiment [1], the “IC50 [M], NFκB-luciferase, 300 pM hIL-36γ” value came to 1.2e-10 M; the “IC50 [M], NFκB-luciferase, 500 pM hIL-36α” value amounted to 8.9e-11 M; the “IC50 [M], NFκB-luciferase, 600 pM hIL-36β” value came out at 1.2e-10 M; the “Max Inhibition (%), NFκB-luciferase, 300 pM hIL-36γ” value worked out at 100%. For the same molecule, in experiment [1], the “Max Inhibition (%), NFκB-luciferase, 500 pM hIL-36α” value was 99% and the “Max Inhibition (%), NFκB-luciferase, 600 pM hIL-36β” value is 100%. Also, in experiment [2], the “IC50, IL-8 production of primary human cells stimulated with 10 nM IL-36α, β and γ” value is 1 to 6 nM. In experiment [3], the “IC50 [M], NFκB-luciferase, 10 pM hIL-36γ” value was determined as 1.6e-10 M; the “IC50 [M], NFκB-luciferase, 15 pM hIL-36β” value worked out at 2e-10 M; the “IC50 [M], NFκB-luciferase, 20 pM hIL-36α” value came out at 1.3e-10 M; the “Max Inhibition (%), NFκB-luciferase, 10 pM hIL-36γ” value is 99%. For the same molecule, in experiment [3], the “Max Inhibition (%), NFκB-luciferase, 15 pM hIL-36β” value was 100% and the “Max Inhibition (%), NFκB-luciferase, 20 pM hIL-36α” value was 101%. Also, in experiment [4], the “100 nM hIL-36R-MMH Bound (RU)” value amounted to 106 RU, the Kd was determined as 13.6 nM, the dissociation rate constant (koff) turned out to be 0.00186 s⁻¹ and the association rate constant (kon) was determined as 136000 M⁻¹ s⁻¹. Besides, the “t½” value in experiment [4] stood at 6 min. Also, in experiment [5], the “100 nM hIL-36R-MMH Bound (RU)” value was 76 RU, the dissociation constant Kd turned out to be 6.82 nM, the koff was determined as 0.000623 s⁻¹ and the kon came out at 91400 M⁻¹ s⁻¹. For the same molecule, the “t½” value in experiment [5] was found to be 19 min.
